This test has as its target modifying region of human fatty acid synthase (hFASN) isolated by TEV cleavage of the engineered full-length protein (human) (UniProt P49327). The test is described as follows: cryo-EM structure; hFASN modifying region after TEV cleavage, 0.8 mg/mL, 1 mM NADPH, 1 mM DTT; also with 13.75 µM Denifanstat; plunge-frozen on holey gold grids, Titan Krios.

1 substance from publication PMC10258763 can be followed below.

For orientation: stoichiometry N means a count of units in the complex or per binding partner.

modifying region of human fatty acid synthase (hFASN) isolated by TEV cleavage of the engineered full-length protein, sequence (P49327 855-2511, change not shown): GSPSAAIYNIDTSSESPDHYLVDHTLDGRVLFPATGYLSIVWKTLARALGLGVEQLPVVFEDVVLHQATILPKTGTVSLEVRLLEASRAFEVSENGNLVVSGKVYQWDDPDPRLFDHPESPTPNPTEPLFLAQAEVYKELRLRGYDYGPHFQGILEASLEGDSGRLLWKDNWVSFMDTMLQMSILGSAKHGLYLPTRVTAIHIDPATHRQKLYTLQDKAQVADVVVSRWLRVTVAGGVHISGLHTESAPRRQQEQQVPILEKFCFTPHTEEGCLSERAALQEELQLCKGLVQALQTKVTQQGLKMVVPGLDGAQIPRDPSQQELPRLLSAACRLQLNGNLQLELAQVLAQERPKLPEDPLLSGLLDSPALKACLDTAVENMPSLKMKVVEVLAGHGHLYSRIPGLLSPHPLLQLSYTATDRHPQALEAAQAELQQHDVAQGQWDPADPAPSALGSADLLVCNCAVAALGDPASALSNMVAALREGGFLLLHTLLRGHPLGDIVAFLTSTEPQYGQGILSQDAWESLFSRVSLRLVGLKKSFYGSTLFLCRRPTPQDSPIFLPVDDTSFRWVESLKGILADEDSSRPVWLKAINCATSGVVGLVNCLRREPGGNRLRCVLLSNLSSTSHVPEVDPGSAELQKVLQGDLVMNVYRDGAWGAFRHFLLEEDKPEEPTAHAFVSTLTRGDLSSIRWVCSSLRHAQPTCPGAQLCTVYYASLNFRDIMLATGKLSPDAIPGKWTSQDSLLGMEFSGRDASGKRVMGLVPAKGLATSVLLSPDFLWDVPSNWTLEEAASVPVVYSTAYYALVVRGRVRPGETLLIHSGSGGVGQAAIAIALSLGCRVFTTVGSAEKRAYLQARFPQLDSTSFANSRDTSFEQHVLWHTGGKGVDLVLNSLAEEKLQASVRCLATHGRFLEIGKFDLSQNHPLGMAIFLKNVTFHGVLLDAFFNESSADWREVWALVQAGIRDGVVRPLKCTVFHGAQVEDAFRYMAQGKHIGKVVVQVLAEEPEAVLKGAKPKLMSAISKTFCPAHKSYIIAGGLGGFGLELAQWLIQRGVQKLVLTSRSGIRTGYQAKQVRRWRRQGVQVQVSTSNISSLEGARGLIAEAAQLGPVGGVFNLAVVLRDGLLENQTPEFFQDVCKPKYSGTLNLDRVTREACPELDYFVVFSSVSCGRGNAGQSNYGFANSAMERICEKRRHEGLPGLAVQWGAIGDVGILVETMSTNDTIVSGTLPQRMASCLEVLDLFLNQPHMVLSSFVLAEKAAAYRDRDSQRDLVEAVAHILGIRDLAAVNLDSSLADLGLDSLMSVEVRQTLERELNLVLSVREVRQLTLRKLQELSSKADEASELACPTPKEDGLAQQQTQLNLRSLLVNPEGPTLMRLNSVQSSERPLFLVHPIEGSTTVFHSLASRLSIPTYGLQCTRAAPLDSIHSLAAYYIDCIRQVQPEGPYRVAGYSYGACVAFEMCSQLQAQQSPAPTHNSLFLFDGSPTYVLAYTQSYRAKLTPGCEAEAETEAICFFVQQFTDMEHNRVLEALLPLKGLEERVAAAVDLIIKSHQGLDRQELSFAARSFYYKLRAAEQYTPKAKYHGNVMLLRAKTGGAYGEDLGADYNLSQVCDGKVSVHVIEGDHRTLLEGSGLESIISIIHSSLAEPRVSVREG

“modifying region of human fatty acid synthase (hFASN) isolated by TEV cleavage of the engineered full-length protein (from UniProt P49327 855-2511) (domain or fragment)” returned a stoichiometry N of 2.
